Patent US20090117593A1, “T. Cruzi-derived neurotrophic agents and methods of use therefor” (Tufts University, priority 2006, published 2009)

Experiments:
[1] = tested on: PC12 cells; test: Protection of PC12 cells from apoptosis induced by trophic factor withdrawal (DAPI, TUNEL); type: cell-based; conditions: serum-free RPMI-1640/0.2% BSA, 17 hours, DAPI or TUNEL
Excerpt: PC12 cells were obtained from ATCC (Manassas, Va. (Accession No. CRL-1721)) and cultured on collagen-coated dishes in RPMI 1640 supplemented with 10% horse serum and 5% fetal bovine serum (Greene, L., and Tishler, A., Proc. Natl. Acad. Sci. USA, 73:2424-2428 (1976)). For differentiation and survival experiments, cells were washed three times in serum-free RPMI/0.2% BSA, plated in the same medium in collagen-coated plastic dishes at 2×10^5/ml, without and with growth factors, TS, recombinant proteins, synthetic peptides, for the time and concentrations indicated in the Figures.
Cell staining with 4,6-diamino-2-phenylindole (DAPI). Cells were fixed with 4% formaldehyde in PBS for 5 minutes, washed with PBS, stained with 10 μg/ml DAPI (Sigma) for 2 minutes, washed with PBS, and visualized under UV light using a fluorescent microscope. About 300-400 cells were examined under the microscope to determine the percentage of apoptotic cells.
Cell DNA nick end labeling (TUNEL) (Gavrieli, Y. et al., J. Cell. Biol., 119:493-501 (1992)) assay was performed using a kit purchased from Boehringer Mannheim as described by the manufacturer.
Protection against apoptosis of PC12 cells in serum-free medium containing a test agent (agent N) (e.g., protection induced by TS, TS fragments, NGF or other growth factors), was calculated by the formula: 100%−[(apoptosis(%) of cells kept in RPMI containing test agent N÷apoptosis (%) of cells kept in RPMI)×100%]. Testing the effect of Wortmannin (Sigma) and LY294002 (Sigma) in inhibiting the neuroprotection of TS was performed following the protocol described by others (Yao, R., and Cooper, G., Science, 267:2003-2006 (1995); D'Mello, et al., J. Neurosci., 17:1548-1560 (1997)). In brief, PC12 cells were switched from growth medium to RPMI without and with TS or various other growth factors. After 24 hours, Wortmannin and LY294002 were added to the cultures. After another 24 hours, cells were examined for apoptosis by the DAPI assay, as above.

[2] = tested on: Bcl-2; test: Bcl-2 gene expression in PC12 cells by RT-PCR; type: cell-based, rat; conditions: TS 2.5 ng/ml, CNTF 50 ng/ml, alone or combined, 17 hours
Description: Total RNA was extracted from PC12 cells by the acid guanidinum isothiocyanate method (Chomchinski, P., Biotechniques, 15:532-535 (1993)) using TRI-reagent (Molecular Research Center, Inc.) cDNA synthesis was performed according to the instruction of the manufacturer (Gibco-BRL). Reverse transcription reactions were carried out for 50 minutes at 42° C. and were heated to 70° C. for 15 minutes to terminate the reaction using a MiniCycler (MJ Research). Samples were cooled to 4° C. and stored at −20° C. until use.
PCR reactions were performed in 50 μl containing 1.5 μl of template DNA (corresponding to cDNA synthesized from 100 ng of total RNA), 1×PCR buffer, 100 μM of deoxynucleotides, 2.5 mM MgCl2, 10 mM DTT, 10 μM of Bcl-2 primers, and 2 U of Taq DNA polymerase (Gibco-BRL). The synthetic DNA primers for the rat Bcl-2 were: 5′-[…]-3′ (SEQ ID NO:8) and 5′-[…]-3′ (SEQ ID NO:9) to give a PCR product of 566 bp. The sequences for synthetic GAPDH DNA primers (Wong, H. et al., Anal. Biochem., 223: 251-258 (1994)) were: 5′-[…]-3′ (SEQ ID NO:10) and 5′-[…]-3′ (SEQ ID NO:11) giving a PCR produce of 306 base pairs. […] Gels were analyzed by computerized densitometric scanning using Gel doc 1000 (Bio Rad) and Molecular Analyst Software, version 2.1.

B1: CNTF: human ciliary neurotrophic factor; recombinant human and rat CNTF (protein, UniProt P26441 1-200, looked up)
Ciliary neurotrophic factor: MAFTEHSPLTPHRRDLCSRSIWLARKIRSDLTALTESYVKHQGLNKNINLDSADGMPVASTDQWSELTEAERLQENLQAYRTFHVLLARLLEDQQVHFTPTEGDFHQAIHTLLLQVAAFAYQIEELMILLEYKIPRNEADGMPINVGDGGLFEKKLWGLKVLQELSQWTVRSIHDLRFISSHQTGIPARGSHYIANNKKM
With B1 the “protection of PC12 cells from apoptosis induced by trophic factor withdrawal” value [1] was “produced little, if any, protection” and the “bcl-2 mRNA expression in PC12 cells” value [2] was “did not induce bcl-2 gene expression individually”.
